Test results as given in patent publication US20110091450.

Molecular target: mouse MBL (mannose-binding lectin of mouse serum, bound to mannan)

B1: recombinant mouse MASP-2 (rMASP-2) (protein)
chain: TLLGSKWPEPVFGRLVSPGFPEKYADHQDRSWTLTAPPGYRLRLYFTHFDLELSYRCEYDFVKLSSGTKVLATLCGQESTDTEQAPGNDTFYSLGPSLKVTFHSDYSNEKPFTGFEAFYAAEDVDECRVSLGDSVPCDHYCHNYLGGYYCSCRAGYILHQNKHTCSALCSGQVFTGRSGYLSSPEYPQPYPKLSSCTYSIRLEDGFSVILDFVESFDVETHPEAQCPYDSLKIQTDKGEHGPFCGKTLPPRIETDSHKVTITFATDESGNHTGWKIHYTSTARPCPDPTAPPNGSISPVQATYVLKDRFSVFCKTGFELLQGSVPLKSFTAVCQKDGSWDRPMPECSIIDCGPPDDLPNGHVDYITGPQVTTYKAVIQYSCEETFYTMSSNGKYVCEADGFWTSSKGEKLPPVCEPVCGLSTHTIGGRIVGGQPAKPGDFPWQVLLLGQTTAAAGALIHDNWVLTAAHAVYEKRMAASSLNIRMGILKRLSPHYTQAWPEEIFIHEGYTHGAGFDNDIALIKLKNKVTINGSIMPVCLPRKEAASLMRTDFTGTVAGWGLTQKGLLARNLMFVDIPIADHQKCTTVYEKLYPGVRVSANMLCAGLETGGKDSCRGDSGGALVFLDNETQRWFVGGIVSWGSINCGAAGQYGVYTKVINYIPWNENIISNF
With B1 the “C4 deposition on mannan-coated wells (sMAP-/- mouse serum)” value was “the amount of C4 was restored by up to 46% of that of wild-type serum in a dose-dependent manner and reached a plateau (FIG. 25B)”.
